The supplement of paper PMC5998384

Tests used:
HeLa Kyoto [1] = assay: melting temperature (median over replicates), in situ; higher = more thermally stable
HeLa Kyoto [2] = assay: solubility change mitosis vs G1/S (difference of NP-40 vs SDS log2 ratios) (log2 ratio difference); higher = more soluble in mitosis
HeLa Kyoto [3] = assay: solubility in G1/S (NP-40 vs SDS abundance) (log2 ratio); higher = more soluble; conditions: cell cycle stage: G1/S
HeLa Kyoto [4] = assay: thermal stability score vs G1/S (z-score of summed log2 fold changes over temperatures); higher = more thermally stable than in G1/S
[5] = cell cycle stage: early G1 (4.5 h after nocodazole release)
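Throughout, for melting temperature (median over replicates), in situ: HeLa Kyoto cells synchronized by double thymidine or nocodazole block, proteins quantified by TMT10plex mass spectrometry, three independent biological replicates.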
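Throughout, for solubility change mitosis vs G1/S (difference of NP-40 vs SDS log2 ratios): synchronized HeLa Kyoto cells (double thymidine block for G1/S, nocodazole release for mitosis), protein amounts in NP-40 versus SDS lysates quantified by mass spectrometry, three biological replicates.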
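Throughout, for solubility in G1/S (NP-40 vs SDS abundance): HeLa Kyoto cells arrested at G1/S by double thymidine block, proteins quantified by TMT10plex mass spectrometry in mild NP-40 versus SDS extracts, three biological replicates.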
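Throughout, for thermal stability score vs G1/S (z-score of summed log2 fold changes over temperatures): synchronized HeLa Kyoto cells, proteins quantified by TMT10plex mass spectrometry, three biological replicates, mitosis taken 0.5 h after nocodazole release, G1/S directly after double thymidine block.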

Substance | melting temperature (HeLa Kyoto [1]; cell cycle stage: G1/S) [°C] | melting temperature (HeLa Kyoto [1]; cell cycle stage: mitosis) [°C] | solubility change mitosis (log2) (HeLa Kyoto [2]) | solubility in G1/S (log2) (HeLa Kyoto [3]) | thermal stability score (HeLa Kyoto [4]; [5]) | thermal stability score (HeLa Kyoto [4]; cell cycle stage: mitosis)
POLE | 49.5 | 51.5 | -0.0472 | -0.355 | 0.724 | 1.31
MSDGFDRAPGAGRGRSRGLGRGGGGPEGGGFPNGAGPAERARHQPPQPKAPGFLQPPPLRQPRTTPPPGAQCEVPASPQRPSRPGALPEQTRPLRAPPSSQDKIPQQNSESAMAKPQVVVAPVLMSKLSVNAPEFYPSGYSSSYTESYEDGCEDYPTLSEYVQDFLNHLTEQPGSFETEIEQFAETLNGCVTTDDALQELVELIYQQATSIPNFSYMGARLCNYLSHHLTISPQSGNFRQLLLQRCRTEYEVKDQAAKGDEVTRKRFHAFVLFLGELYLNLEIKGTNGQVTRADILQVGLRELLNALFSNPMDDNLICAVKLLKLTGSVLEDAWKEKGKMDMEEIIQRIENVVLDANCSRDVKQMLLKLVELRSSNWGRVHATSTYREATPENDPNYFMNEPTFYTSDGVPFTAADPDYQEKYQELLEREDFFPDYEENGTDLSGAGDPYLDDIDDEMDPEIEEAYEKFCLESERKRKQ [PAIP1] | 52.9 | 52.8 | 0.154 | 0.466 | 1.49 | 1.64
MATPSKKTSTPSPQPSKRALPRDPSSEVPSKRKNSAPQLPLLQSSGPFVEGSIVRISMENFLTYDICEVSPGPHLNMIVGANGTGKSSIVCAICLGLAGKPAFMGRADKVGFFVKRGCSRGMVEIELFRASGNLVITREIDVAKNQSFWFINKKSTTQKIVEEKVAALNIQVGNLCQFLPQDKVGEFAKLSKIELLEATEKSIGPPEMHKYHCELKNLREKEKQLETSCKEKTEYLQKMVQRNERYKQDVERFYERKRHLDLIEMLEAKRPWVEYENVRQEYEEVKLVRDRVKEEVRKLKEGQIPVTCRIEEMENERHNLEARIKEKATDIKEASQKCKQKQDVIERKDKHIEELQQALIVKQNEELDRQRRIGNTRKMIEDLQNELKTTENCENLQPQIDAITNDLRRIQDEKALCEGEIIDKRRERETLEKEKKSVDDHIVRFDNLMNQKEDKLRQRFRDTYDAVLWLRNNRDKFKQRVCEPIMLTINMKDNKNAKYIENHIPSNDLRAFVFESQEDMEVFLKEVRDNKKLRVNAVIAPKSSYADKAPSRSLNELKQYGFFSYLRELFDAPDPVMSYLCCQYHIHEVPVGTEKTRERIERVIQETRLKQIYTAEEKYVVKTSFYSNKVISSNTSLKVAQFLTVTVDLEQRRHLEEQLKEIHRKLQAVDSGLIALRETSKHLEHKDNELRQKKKELLERKTKKRQLEQKISSKLGSLKLMEQDTCNLEEEERKASTKIKEINVQKAKLVTELTNLIKICTSLHIQKVDLILQNTTVISEKNKLESDYMAASSQLRLTEQHFIELDENRQRLLQKCKELMKRARQVCNLGAEQTLPQEYQTQVPTIPNGHNSSLPMVFQDLPNTLDEIDALLTEERSRASCFTGLNPTIVQEYTKREEEIEQLTEELKGKKVELDQYRENISQVKERWLNPLKELVEKINEKFSNFFSSMQCAGEVDLHTENEEDYDKYGIRIRVKFRSSTQLHELTPHHQSGGERSVSTMLYLMALQELNRCPFRVVDEINQGMDPINERRVFEMVVNTACKENTSQYFFITPKLLQNLPYSEKMTVLFVYNGPHMLEPNTWNLKAFQRRRRRITFTQPS [SMC5] | 50.6 | 50.7 | -0.0502 | -0.139 | 0.153 | 0.876
MAIPGRQYGLILPKKTQQLHPVLQKPSVFGNDSDDDDETSVSESLQREAAKKQAMKQTKLEIQKALAEDATVYEYDSIYDEMQKKKEENNPKLLLGKDRKPKYIHNLLKAVEIRKKEQEKRMEKKIQREREMEKGEFDDKEAFVTSAYKKKLQERAEEEEREKRAAALEACLDVTKQKDLSGFYRHLLNQAVGEEEVPKCSFREARSGIKEEKSRGFSNEVSSKNRIPQEKCILQTDVKVEENPDADSDFDAKSSADDEIEETRVNCRREKVIETPENDFKHHRSQNHSRSPSEERGHSTRHHTKGSRTSRGHEKREDQHQQKQSRDQENHYTDRDYRKERDSHRHREASHRDSHWKRHEQEDKPRARDQRERSDRVWKREKDREKYSQREQERDRQQNDQNRPSEKGEKEEKSKAKEEHMKVRKERYENNDKYRDREKREVGVQSSERNQDRKESSPNSRAKDKFLDQERSNKMRNMAKDKERNQEKPSNSESSLGAKHRLTEEGQEKGKEQERPPEAVSKFAKRNNEETVMSARDRYLARQMARVNAKTYIEKEDD [NSRP1] | 55.3 | 55.6 | 0.242 | -0.433 | 0.0783 | -1.16
MAQTPAFDKPKVELHVHLDGSIKPETILYYGRRRGIALPANTAEGLLNVIGMDKPLTLPDFLAKFDYYMPAIAGCREAIKRIAYEFVEMKAKEGVVYVEVRYSPHLLANSKVEPIPWNQAEGDLTPDEVVALVGQGLQEGERDFGVKARSILCCMRHQPNWSPKVVELCKKYQQQTVVAIDLAGDETIPGSSLLPGHVQAYQEAVKSGIHRTVHAGEVGSAEVVKEAVDILKTERLGHGYHTLEDQALYNRLRQENMHFEICPWSSYLTGAWKPDTEHAVIRLKNDQANYSLNTDDPLIFKSTLDTDYQMTKRDMGFTEEEFKRLNINAAKSSFLPEDEKRELLDLLYKAYGMPPSASAGQNL [ADA] | 57.9 | 59.2 | -0.0197 | 0.319 | -1.89 | -1.32
